In paper PMC4367269, “Probing the Acceptor Active Site Organization of the Human Recombinant β1,4-Galactosyltransferase 7 and Design of Xyloside-based Inhibitors” (The Journal of Biological Chemistry, 2015):
Changes are numbered by the printed parent chain. In names and notes the source's numbering stands.

T1: hβ4GalT7 (GST-β4GalT7) (Homo sapiens, UniProt Q9UBV7)
T1 construct: gene B4GALT7; truncated soluble form lacking the first 60 N-terminal amino acids (transmembrane domain and part of stem), GST fusion (tag kept), pET-41a(+), E. coli BL21(DE3), glutathione-Sepharose purified
T1 sequence (Q9UBV7 61-327): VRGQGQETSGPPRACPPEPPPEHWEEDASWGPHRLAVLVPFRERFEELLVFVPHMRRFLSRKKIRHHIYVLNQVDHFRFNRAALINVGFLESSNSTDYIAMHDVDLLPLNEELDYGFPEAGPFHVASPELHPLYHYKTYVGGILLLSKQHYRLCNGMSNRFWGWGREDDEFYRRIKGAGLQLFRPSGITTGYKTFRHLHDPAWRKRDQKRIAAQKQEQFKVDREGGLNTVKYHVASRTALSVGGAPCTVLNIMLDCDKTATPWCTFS

B1: hβ4GalT7 (GST-β4GalT7) (Homo sapiens; H195R) (protein)
chain: T1 sequence (Q9UBV7 61-327) with H135R
notes: truncated soluble form lacking the first 60 N-terminal amino acids (transmembrane domain and part of stem), GST fusion (tag kept), pET-41a(+), E. coli BL21(DE3), glutathione-Sepharose purified
B2: hβ4GalT7 (GST-β4GalT7) (Homo sapiens) (protein)
chain: T1 sequence (Q9UBV7 61-327)
notes: as for B1
B3: hβ4GalT7 (GST-β4GalT7) (Homo sapiens; Y199F) (protein)
chain: T1 sequence (Q9UBV7 61-327) with Y139F
notes: as for B1
B4: hβ4GalT7 (GST-β4GalT7) (Homo sapiens; R226K) (protein)
chain: T1 sequence (Q9UBV7 61-327) with R166K
notes: as for B1
B5: hβ4GalT7 (GST-β4GalT7) (Homo sapiens; Y196F) (protein)
chain: T1 sequence (Q9UBV7 61-327) with Y136F
notes: as for B1
B6: hβ4GalT7 (GST-β4GalT7) (Homo sapiens; R270A) (protein)
chain: T1 sequence (Q9UBV7 61-327) with R210A
notes: as for B1
B7: hβ4GalT7 (GST-β4GalT7) (Homo sapiens; H195A) (protein)
chain: T1 sequence (Q9UBV7 61-327) with H135A
notes: as for B1
B8: hβ4GalT7 (GST-β4GalT7) (Homo sapiens; H195Q) (protein)
chain: T1 sequence (Q9UBV7 61-327) with H135Q
notes: as for B1
B9: hβ4GalT7 (GST-β4GalT7) (Homo sapiens; R226A) (protein)
chain: T1 sequence (Q9UBV7 61-327) with R166A
notes: as for B1
B10: hβ4GalT7 (GST-β4GalT7) (Homo sapiens; R270K) (protein)
chain: T1 sequence (Q9UBV7 61-327) with R210K
notes: as for B1

Tests used:
[1] = molecular target: T1, hβ4GalT7 (GST-β4GalT7); assay: galactosyltransferase competition assay, HPLC-UV; type: biochemical; details: 0.5 mM 4-MUX, 1 mM UDP-Gal, 10 mM MnCl2, 100 mM sodium cacodylate pH 7.0, 37 °C; IC50 and Ki not determined
[2] = molecular target: T1, hβ4GalT7 (GST-β4GalT7); assay: galactosyltransferase competition assay, HPLC-UV; type: biochemical
Description: galactosyltransferase competition assay, HPLC-UV on hβ4GalT7 (GST-β4GalT7)

[3] = substrate: Cc1cc(=O)oc2cc(O[C@@H]3OC[C@@H](O)[C@H](O)[C@H]3O)ccc12; assay: galactosyltransferase assay, HPLC-UV; type: biochemical, Homo sapiens; details: apparent, fixed 1 mM UDP-Gal, 10 mM MnCl2, 100 mM sodium cacodylate pH 7.0, 37 °C
Description: (§1) galactosyltransferase assay, HPLC-UV on hβ4GalT7 (GST-β4GalT7)

[4] = substrate: O=c1ccn([C@@H]2O[C@H](COP(=O)(O)OP(=O)(O)O[C@H]3O[C@H](CO)[C@H](O)[C@H](O)[C@H]3O)[C@@H](O)[C@H]2O)c(=O)[nH]1; assay: galactosyltransferase assay, HPLC-UV; type: biochemical, Homo sapiens; details: apparent, fixed 5 mM 4-MUX, 10 mM MnCl2, 100 mM sodium cacodylate pH 7.0, 37 °C
Description: as §1

Molecule | % decrease of activity at the highest concentration (5 mM) [1] | IC50 [2] | Ki [2] | Km [3] | kcat [3] | kcat/Km [3] | Km [4] | kcat [4] | kcat/Km [4]
O[C@H]1[C@H](Oc2ccc3ccccc3c2)OCC[C@@H]1O [4H-Xyl-NP, Naphthyl-4-deoxy-β-D-xylopyranoside] | < 25% | – | – | – | – | – | – | – | –
Cc1cc(=O)oc2cc(O[C@@H]3OCC[C@H](O)[C@H]3O)ccc12 [4H-Xyl-MU, 4-Methylumbelliferyl-4-deoxy-β-D-xylopyranoside] | – | 1280 ± 220 µM | 530 ± 100 µM | – | – | – | – | – | –
B1 | – | – | – | 350 ± 30 µM | 1.49 ± 0.0217 s⁻¹ | 4030 M⁻¹ s⁻¹ | 320 ± 20 µM | 1.49 ± 0.0217 s⁻¹ | 4920 M⁻¹ s⁻¹
B2 | – | – | – | 350 ± 20 µM | 1.51 ± 0.0383 s⁻¹ | 4170 M⁻¹ s⁻¹ | 220 ± 20 µM | 1.51 ± 0.0383 s⁻¹ | 7080 M⁻¹ s⁻¹
B3 | – | – | – | 590 ± 60 µM | 1.2 ± 0.0967 s⁻¹ | 1880 M⁻¹ s⁻¹ | 320 ± 20 µM | 1.2 ± 0.0967 s⁻¹ | 4050 M⁻¹ s⁻¹
B4 | – | – | – | 460 ± 10 µM | 1.35 ± 0.0483 s⁻¹ | 2920 M⁻¹ s⁻¹ | 290 ± 20 µM | 1.35 ± 0.0483 s⁻¹ | 4700 M⁻¹ s⁻¹
B5 | – | – | – | 1060 ± 60 µM | 0.5 ± 0.0183 s⁻¹ | 467 M⁻¹ s⁻¹ | 340 ± 60 µM | 0.5 ± 0.0183 s⁻¹ | 1470 M⁻¹ s⁻¹
B6 | – | – | – | 600 ± 20 µM | 0.773 ± 0.0033 s⁻¹ | 1200 M⁻¹ s⁻¹ | 270 ± 10 µM | 0.773 ± 0.0033 s⁻¹ | 3070 M⁻¹ s⁻¹
B7 | – | – | – | 640 ± 20 µM | 1.932 ± 0.162 s⁻¹ | 3000 M⁻¹ s⁻¹ | 400 ± 20 µM | 1.932 ± 0.162 s⁻¹ | 4850 M⁻¹ s⁻¹
B8 | – | – | – | 550 ± 20 µM | 1.62 ± 0.04 s⁻¹ | 2950 M⁻¹ s⁻¹ | 330 ± 20 µM | 1.62 ± 0.04 s⁻¹ | 4920 M⁻¹ s⁻¹
B9 | – | – | – | 440 ± 50 µM | 0.893 ± 0.0333 s⁻¹ | 1870 M⁻¹ s⁻¹ | 340 ± 30 µM | 0.893 ± 0.0333 s⁻¹ | 2850 M⁻¹ s⁻¹
B10 | – | – | – | 540 ± 70 µM | 0.812 ± 0.025 s⁻¹ | 1420 M⁻¹ s⁻¹ | 370 ± 20 µM | 0.812 ± 0.025 s⁻¹ | 2320 M⁻¹ s⁻¹
